Data set [1] addresses T1, SUMO1 EIL peptide SLRFLFEGQRIADNH (SEQ ID NO: 1).
T1 chain: SLRFLFEGQRIADNH

The target in data set [2] is RanGAP modified with SUMO1, P63165.
The next data set addresses T2, SLRFLYEG (SEQ ID NO: 38).
T2 chain: SLRFLYEG

Sequence of SUMO2R61L, P61956 (P61956 1-93 R61L): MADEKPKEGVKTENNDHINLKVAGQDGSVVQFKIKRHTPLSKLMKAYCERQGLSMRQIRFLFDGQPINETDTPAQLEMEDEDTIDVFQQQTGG
Sequence of SUMO2D71H, P61956 (P61956 other isoform, or with tags, fused parts or gaps): as the sequence (P61956 1-93 R61L) above, with L61R, D71H counted along it
Sequence of SUMO2, P61956 (P61956 1-93): as the sequence (P61956 1-93 R61L) above, with L61R counted along it

B1: Dipeptidyl peptidase 8 (DPP8), recombinant (protein)
chain: MWKRSEQMKIKSGKCNMAAAMETEQLGVEIFETADCEENIESQDRPKLEPFYVERYSWSQLKKLLADTRKYHGYMMAKAPHDFMFVKRNDPDGPHSDRIYYLAMSGENRENTLFYSEIPKTINRAAVLMLSWKPLLDLFQATLDYGMYSREEELLRERKRIGTVGIASYDYHQGSGTFLFQAGSGIYHVKDGGPQGFTQQPLRPNLVETSCPNIRMDPKLCPADPDWIAFIHSNDIWISNIVTREERRLTYVHNELANMEEDARSAGVATFVLQEEFDRYSGYWWCPKAETTPSGGKILRILYEENDESEVEIIHVTSPMLETRRADSFRYPKTGTANPKVTFKMSEIMIDAEGRIIDVIDKELIQPFEILFEGVEYIARAGWTPEGKYAWSILLDRSQTRLQIVLISPELFIPVEDDVMERQRLIESVPDSVTPLIIYEETTDIWINIHDIFHVFPQSHEEEIEFIFASECKTGFRHLYKITSILKESKYKRSSGGLPAPSDFKCPIKEEIAITSGEWEVLGRHGSNIQVDEVRRLVYFEGTKDSPLEHHLYVVSYVNPGEVTRLTDRGYSHSCCISQHCDFFISKYSNQKNPHCVSLYKLSSPEDDPTCKTKEFWATILDSAGPLPDYTPPEIFSFESTTGFTLYGMLYKPHDLQPGKKYPTVLFIYGGPQVQLVNNRFKGVKYFRLNTLASLGYVVVVIDNRGSCHRGLKFEGAFKYKMGQIEIDDQVEGLQYLASRYDFIDLDRVGIHGWSYGGYLSLMALMQRSDIFRVAIAGAPVTLWIFYDTGYTERYMGHPDQNEQGYYLGSVAMQAEKFPSEPNRLLLLHGFLDENVHFAHTSILLSFLVRAGKPYDLQIYPQERHSIRVPESGEHYELHLLHYLQENLGSRIAALKVI
For the protein B1, in data set [1], the “hydrolysis of GP-AMC by recombinant DPP8” value is “pure recombinant DPP8 and DPP9 are inhibited by the EIL peptide, also in the absence of SUMO1”.

B2: Dipeptidyl peptidase 9 (DPP9), recombinant wild-type (protein)
chain: MRKVKKLRLDKENTGSWRSFSLNSEGAERMATTGTPTADRGDAAATDDPAARFQVQKHSWDGLRSIIHGSRKYSGLIVNKAPHDFQFVQKTDESGPHSHRLYYLGMPYGSRENSLLYSEIPKKVRKEALLLLSWKQMLDHFQATPHHGVYSREEELLRERKRLGVFGITSYDFHSESGLFLFQASNSLFHCRDGGKNGFMVSPMKPLEIKTQCSGPRMDPKICPADPAFFSFINNSDLWVANIETGEERRLTFCHQGLSNVLDDPKSAGVATFVIQEEFDRFTGYWWCPTASWEGSEGLKTLRILYEEVDESEVEVIHVPSPALEERKTDSYRYPRTGSKNPKIALKLAEFQTDSQGKIVSTQEKELVQPFSSLFPKVEYIARAGWTRDGKYAWAMFLDRPQQWLQLVLLPPALFIPSTENEEQRLASARAVPRNVQPYVVYEEVTNVWINVHDIFYPFPQSEGEDELCFLRANECKTGFCHLYKVTAVLKSQGYDWSEPFSPGEDEFKCPIKEEIALTSGEWEVLARHGSKIWVNEETKLVYFQGTKDTPLEHHLYVVSYEAAGEIVRLTTPGFSHSCSMSQNFDMFVSHYSSVSTPPCVHVYKLSGPDDDPLHKQPRFWASMMEAASCPPDYVPPEIFHFHTRSDVRLYGMIYKPHALQPGKKHPTVLFVYGGPQVQLVNNSFKGIKYLRLNTLASLGYAVVVIDGRGSCQRGLRFEGALKNQMGQVEIEDQVEGLQFVAEKYGFIDLSRVAIHGWSYGGFLSLMGLIHKPQVFKVAIAGAPVTVWMAYDTGYTERYMDVPENNQHGYEAGSVALHVEKLPNEPNRLLILHGFLDENVHFFHTNFLVSQLIRAGKPYQLQIYPNERHSIRCPESGEHYEVTLLHFLQEYL
For the protein B2, the “hydrolysis of GP-AMC by DPP9” value is “this activation was not observed in the presence of SUMO1 mutated in a single amino acid: SUMO1E67A” with SUMO1E67A, P63165; “DPP9 activity is increased when incubated with RanGAP modified by SUMO1, but not by unmodified RanGAP” in data set [2]; “This activation was not observed in the presence of SUMO2R61L” with SUMO2R61L, P61956; “SUMO1 but not SUMO2 can regulate DPP9 activity” in the data set with SUMO2, P61956; “DPP9 activity was increased in the presence of SUMO2 mutated in a single amino acid: D71H” with SUMO2D71H, P61956; “DPP9 activity is increased when incubated with RanGAP modified by SUMO1, but not by unmodified RanGAP” with RanGAP. In the data set with SUMO1, P63165, the “hydrolysis rate of GP-AMC by DPP9” value is given as “the hydrolysis rate of GP-AMC by DPP9 was increased in the presence of SUMO1 in comparison to control reactions”. Further, in data set [1], the “hydrolysis of GP-AMC by recombinant DPP9” value is “pure recombinant DPP8 and DPP9 are inhibited by the EIL peptide, also in the absence of SUMO1”.

B3: Dipeptidyl peptidase IV (DPPIV) (protein)
chain: SRKTYTLTDYLKNTYRLKLYSLRWISDHEYLYKQENNILVFNAEYGNSSVFLENSTFDEFGHSINDYSISPDGQFILLEYNYVKQWRHSYTASYDIYDLNKRQLITEERIPNNTQWVTWSPVGHKLAYVWNNDIYVKIEPNLPSYRITWTGKEDIIYNGITDWVYEEEVFSAYSALWWSPNGTFLAYAQFNDTEVPLIEYSFYSDESLQYPKTVRVPYPKAGAVNPTVKFFVVNTDSLSSVTNATSIQITAPASMLIGDHYLCDVTWATQERISLQWLRRIQNYSVMDICDYDESSGRWNCLVARQHIEMSTTGWVGRFRPSEPHFTLDGNSFYKIISNEEGYRHICYFQIDKKDCTFITKGTWEVIGIEALTSDYLYYISNEYKGMPGGRNLYKIQLSDYTKVTCLSCELNPERCQYYSVSFSKEAKYYQLRCSGPGLPLYTLHSSVNDKGLRVLEDNSALDKMLQNVQMPSKKLDFIILNETKFWYQMILPPHFDKSKKYPLLLDVYAGPCSQKADTVFRLNWATYLASTENIIVASFDGRGSGYQGDKIMHAINRRLGTFEVEDQIEAARQFSKMGFVDNKRIAIWGWSYGGYVTSMVLGSGSGVFKCGIAVAPVSRWEYYDSVYTERYMGLPTPEDNLDHYRNSTVMSRAENFKQVEYLLIHGTADDNVHFQQSAQISKALVDVGVDFQAMWYTDEDHGIASSTAHQHIYTHMSHFIKQCFSLP
Consider B3, for which the “hydrolysis of GP-AMC by DPPIV” value was “It has no inhibitory effect towards DPPIV, in the concentrations measured (up to 50 µM)” with SLRFLYEG (SEQ ID NO: 38) and “DPPIV is not inhibited by the EIL peptide, also in the presence of 13 µM peptide” in [1].
